In PMC6140455 one finds binding result and Kd data, which are given here for one molecule.

What all share (experiment): fluorescence anisotropy
One series deals with T1, YTHDC2 YTH domain W1360A (Homo sapiens, UniProt Q9H6S0 1277-1430, W1360A).
T1 sequence: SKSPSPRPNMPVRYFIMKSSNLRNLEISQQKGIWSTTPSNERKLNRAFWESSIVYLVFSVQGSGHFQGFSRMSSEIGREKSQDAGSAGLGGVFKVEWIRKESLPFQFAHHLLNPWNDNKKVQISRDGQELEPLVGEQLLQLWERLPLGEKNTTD

Another series addresses T2, YTHDC2 YTH domain W1310A (Homo sapiens, UniProt Q9H6S0 1277-1430, W1310A).
T2 sequence: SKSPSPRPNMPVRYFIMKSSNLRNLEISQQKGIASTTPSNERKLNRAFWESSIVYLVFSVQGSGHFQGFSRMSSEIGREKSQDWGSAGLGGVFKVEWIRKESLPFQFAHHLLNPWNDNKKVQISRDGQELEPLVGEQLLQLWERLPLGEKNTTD

Another series addresses T3, YTHDC2 YTH domain (Homo sapiens, UniProt Q9H6S0 1277-1430).
T3 sequence: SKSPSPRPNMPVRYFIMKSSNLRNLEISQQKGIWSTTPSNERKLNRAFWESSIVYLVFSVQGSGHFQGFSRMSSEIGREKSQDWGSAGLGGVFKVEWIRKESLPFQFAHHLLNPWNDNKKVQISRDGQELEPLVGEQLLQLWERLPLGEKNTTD

As a reminder, the Kd is the free concentration of one partner at which half of the binding sites on the other are occupied at equilibrium, for simple one-to-one binding. A low value points to higher affinity. For CCGGACUGU (ssRNA, N6-methyladenosine at position 5) [GGm6ACU 9-nt RNA], the binding result with YTHDC2 YTH domain W1360A and with YTHDC2 YTH domain W1310A was “no binding” throughout. In the series with YTHDC2 YTH domain, this molecule registered a Kd of 3.2 ± 0.3 µM.
